Test results as given in US20080020978A1 (Amgen, published 2008).
Square brackets hold non-standard residues; d marks the D form. Oic = O=C(O)[C@@H]1C[C@@H]2CCCC[C@@H]2N1; hArg = N=C(N)NCCCC[C@H](N)C(=O)O; Cit = NC(=O)NCCC[C@H](N)C(=O)O; Aib = CC(C)(N)C(=O)O

Target: CGRP1 receptor (CRLR/RAMP1 complex) of human neuroblastoma SK-N-MC cells (human, UniProt Q16602 23-461; O60894 27-148)
Assay: cell-based or functional assay

Sequence of CGRP1 receptor (CRLR/RAMP1 complex) of human neuroblastoma SK-N-MC cells (Q16602 23-461, chain 1 of 2): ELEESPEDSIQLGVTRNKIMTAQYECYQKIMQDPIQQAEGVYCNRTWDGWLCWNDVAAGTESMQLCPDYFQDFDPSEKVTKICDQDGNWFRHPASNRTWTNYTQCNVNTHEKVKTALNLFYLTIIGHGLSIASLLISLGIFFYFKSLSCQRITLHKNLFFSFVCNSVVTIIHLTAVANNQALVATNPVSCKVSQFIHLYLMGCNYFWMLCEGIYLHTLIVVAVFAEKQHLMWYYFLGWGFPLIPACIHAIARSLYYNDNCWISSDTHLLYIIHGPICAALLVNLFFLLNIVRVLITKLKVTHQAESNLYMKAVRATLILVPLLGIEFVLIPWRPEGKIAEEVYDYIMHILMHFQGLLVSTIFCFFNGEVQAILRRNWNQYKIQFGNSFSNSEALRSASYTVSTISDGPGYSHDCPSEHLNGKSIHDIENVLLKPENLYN
Sequence of CGRP1 receptor (CRLR/RAMP1 complex) of human neuroblastoma SK-N-MC cells (O60894 27-148, chain 2 of 2): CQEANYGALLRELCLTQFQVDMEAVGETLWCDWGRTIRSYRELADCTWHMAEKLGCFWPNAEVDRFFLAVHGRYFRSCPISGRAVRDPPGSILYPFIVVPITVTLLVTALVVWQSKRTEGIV

Binder | IC50 [nM]
Ac-VTH[Cit]LAGLLS[Cit]SGGVV[hArg]KNFVPTDVG[Oic]FAF-NH2 (SMILES CC(=O)N[C@H](C(=O)N[C@H](C(=O)N[C@@H](Cc1c[nH]cn1)C(=O)N[C@@H](CCCNC(N)=O)C(=O)N[C@@H](CC(C)C)C(=O)N[C@@H](C)C(=O)NCC(=O)N[C@@H](CC(C)C)C(=O)N[C@@H](CC(C)C)C(=O)N[C@@H](CO)C(=O)N[C@@H](CCCNC(N)=O)C(=O)N[C@@H](CO)C(=O)NCC(=O)NCC(=O)N[C@H](C(=O)N[C@H](C(=O)N[C@@H](CCCCNC(=N)N)C(=O)N[C@@H](CCCCN)C(=O)N[C@@H](CC(N)=O)C(=O)N[C@@H](Cc1ccccc1)C(=O)N[C@H](C(=O)N1CCC[C@H]1C(=O)N[C@H](C(=O)N[C@@H](CC(=O)O)C(=O)N[C@H](C(=O)NCC(=O)N1[C@H](C(=O)N[C@@H](Cc2ccccc2)C(=O)N[C@@H](C)C(=O)N[C@@H](Cc2ccccc2)C(N)=O)C[C@@H]2CCCC[C@@H]21)C(C)C)[C@@H](C)O)C(C)C)C(C)C)C(C)C)[C@@H](C)O)C(C)C) [SEQ ID NO 660] | 3
Ac-WVTH[Cit]LAGLLS[Cit]SGGVV[hArg]KNFVPTDVG[Aib]FAF-NH2 [SEQ ID NO 670] | 4.37
Ac-WVTH[Cit]LAGLLS[Cit]SGGVV[hArg]KNFVPTDVG[Oic]FA-NH2 (SMILES CC(=O)N[C@@H](Cc1c[nH]c2ccccc12)C(=O)N[C@H](C(=O)N[C@H](C(=O)N[C@@H](Cc1c[nH]cn1)C(=O)N[C@@H](CCCNC(N)=O)C(=O)N[C@@H](CC(C)C)C(=O)N[C@@H](C)C(=O)NCC(=O)N[C@@H](CC(C)C)C(=O)N[C@@H](CC(C)C)C(=O)N[C@@H](CO)C(=O)N[C@@H](CCCNC(N)=O)C(=O)N[C@@H](CO)C(=O)NCC(=O)NCC(=O)N[C@H](C(=O)N[C@H](C(=O)N[C@@H](CCCCNC(=N)N)C(=O)N[C@@H](CCCCN)C(=O)N[C@@H](CC(N)=O)C(=O)N[C@@H](Cc1ccccc1)C(=O)N[C@H](C(=O)N1CCC[C@H]1C(=O)N[C@H](C(=O)N[C@@H](CC(=O)O)C(=O)N[C@H](C(=O)NCC(=O)N1[C@H](C(=O)N[C@@H](Cc2ccccc2)C(=O)N[C@@H](C)C(N)=O)C[C@@H]2CCCC[C@@H]21)C(C)C)[C@@H](C)O)C(C)C)C(C)C)C(C)C)[C@@H](C)O)C(C)C) [SEQ ID NO 659] | > 1000
Ac-WVTH[Cit]LAGLLS[Cit]SGGVV[hArg]KNFVPTDVGPF-NH2 (SMILES CC(=O)N[C@@H](Cc1c[nH]c2ccccc12)C(=O)N[C@H](C(=O)N[C@H](C(=O)N[C@@H](Cc1c[nH]cn1)C(=O)N[C@@H](CCCNC(N)=O)C(=O)N[C@@H](CC(C)C)C(=O)N[C@@H](C)C(=O)NCC(=O)N[C@@H](CC(C)C)C(=O)N[C@@H](CC(C)C)C(=O)N[C@@H](CO)C(=O)N[C@@H](CCCNC(N)=O)C(=O)N[C@@H](CO)C(=O)NCC(=O)NCC(=O)N[C@H](C(=O)N[C@H](C(=O)N[C@@H](CCCCNC(=N)N)C(=O)N[C@@H](CCCCN)C(=O)N[C@@H](CC(N)=O)C(=O)N[C@@H](Cc1ccccc1)C(=O)N[C@H](C(=O)N1CCC[C@H]1C(=O)N[C@H](C(=O)N[C@@H](CC(=O)O)C(=O)N[C@H](C(=O)NCC(=O)N1CCC[C@H]1C(=O)N[C@@H](Cc1ccccc1)C(N)=O)C(C)C)[C@@H](C)O)C(C)C)C(C)C)C(C)C)[C@@H](C)O)C(C)C) [SEQ ID NO 655] | > 1000
Ac-WVTH[Cit]LAGLLS[Cit]SGGVV[Cit]KNFVPTDVG[Oic]KAF-NH2 (SMILES CC(=O)N[C@@H](Cc1c[nH]c2ccccc12)C(=O)N[C@H](C(=O)N[C@H](C(=O)N[C@@H](Cc1c[nH]cn1)C(=O)N[C@@H](CCCNC(N)=O)C(=O)N[C@@H](CC(C)C)C(=O)N[C@@H](C)C(=O)NCC(=O)N[C@@H](CC(C)C)C(=O)N[C@@H](CC(C)C)C(=O)N[C@@H](CO)C(=O)N[C@@H](CCCNC(N)=O)C(=O)N[C@@H](CO)C(=O)NCC(=O)NCC(=O)N[C@H](C(=O)N[C@H](C(=O)N[C@@H](CCCNC(N)=O)C(=O)N[C@@H](CCCCN)C(=O)N[C@@H](CC(N)=O)C(=O)N[C@@H](Cc1ccccc1)C(=O)N[C@H](C(=O)N1CCC[C@H]1C(=O)N[C@H](C(=O)N[C@@H](CC(=O)O)C(=O)N[C@H](C(=O)NCC(=O)N1[C@H](C(=O)N[C@@H](CCCCN)C(=O)N[C@@H](C)C(=O)N[C@@H](Cc2ccccc2)C(N)=O)C[C@@H]2CCCC[C@@H]21)C(C)C)[C@@H](C)O)C(C)C)C(C)C)C(C)C)[C@@H](C)O)C(C)C) [SEQ ID NO 665] | 3.77
Ac-LAGLLS[Cit]SGGVV[hArg]KNFVPTDVG[Oic]FAF-NH2 (SMILES CC(=O)N[C@@H](CC(C)C)C(=O)N[C@@H](C)C(=O)NCC(=O)N[C@@H](CC(C)C)C(=O)N[C@@H](CC(C)C)C(=O)N[C@@H](CO)C(=O)N[C@@H](CCCNC(N)=O)C(=O)N[C@@H](CO)C(=O)NCC(=O)NCC(=O)N[C@H](C(=O)N[C@H](C(=O)N[C@@H](CCCCNC(=N)N)C(=O)N[C@@H](CCCCN)C(=O)N[C@@H](CC(N)=O)C(=O)N[C@@H](Cc1ccccc1)C(=O)N[C@H](C(=O)N1CCC[C@H]1C(=O)N[C@H](C(=O)N[C@@H](CC(=O)O)C(=O)N[C@H](C(=O)NCC(=O)N1[C@H](C(=O)N[C@@H](Cc2ccccc2)C(=O)N[C@@H](C)C(=O)N[C@@H](Cc2ccccc2)C(N)=O)C[C@@H]2CCCC[C@@H]21)C(C)C)[C@@H](C)O)C(C)C)C(C)C)C(C)C) [SEQ ID NO 662] | 16.5
WVTHXLAGLLSXSGGVVXKNFVPTDVGXFAF (AC-WVTH[Cit]LAGLLS[Cit]SGGVV[hArg]KNFVPTDVG[Pip]FAF-NH2) [SEQ ID NO 666] | 11.2
WVTHXLAGLLSXSGGVVXKNFVPTDVGXFAF (AC-WVTH[Cit]LAGLLS[Cit]SGGVV[hArg]KNFVPTDVG[Hyp]FAF-NH2) [SEQ ID NO 668] | 6.01
WVTHXLAGLLSXSGGVVXKNFVPTDVGPXAF (Ac-WVTH[Cit]LAGLLS[Cit]SGGVV[hArg]KNFVPTDVGP[Tic]AF-NH2) [SEQ ID NO 131] | 89.9
WVTHXLAGLLSXSGGVVXKNFVPTDVGXFAF (Ac-WVTH[Cit]LAGLLS[Cit]SGGVV[hArg]KNFVPTDVG[Hyp]FAF-NH2) [SEQ ID NO 667] | 6.62
Ac-[Cit]LAGLLS[Cit]SGGVV[hArg]KNFVPTDVGPFAF-NH2 (SMILES CC(=O)N[C@@H](CCCNC(N)=O)C(=O)N[C@@H](CC(C)C)C(=O)N[C@@H](C)C(=O)NCC(=O)N[C@@H](CC(C)C)C(=O)N[C@@H](CC(C)C)C(=O)N[C@@H](CO)C(=O)N[C@@H](CCCNC(N)=O)C(=O)N[C@@H](CO)C(=O)NCC(=O)NCC(=O)N[C@H](C(=O)N[C@H](C(=O)N[C@@H](CCCCNC(=N)N)C(=O)N[C@@H](CCCCN)C(=O)N[C@@H](CC(N)=O)C(=O)N[C@@H](Cc1ccccc1)C(=O)N[C@H](C(=O)N1CCC[C@H]1C(=O)N[C@H](C(=O)N[C@@H](CC(=O)O)C(=O)N[C@H](C(=O)NCC(=O)N1CCC[C@H]1C(=O)N[C@@H](Cc1ccccc1)C(=O)N[C@@H](C)C(=O)N[C@@H](Cc1ccccc1)C(N)=O)C(C)C)[C@@H](C)O)C(C)C)C(C)C)C(C)C) [SEQ ID NO 657] | 13
Ac-[Cit]LAGLLS[Cit]SGGVV[hArg]KNFVPTDVG[Oic]FAF-NH2 [SEQ ID NO 661] | 8.74
